In the assay the target is T1, CD3 epsilon homodimer protein (UniProt P07766 23-126).
T1 construct: also called CD3 (CD3 epsilon)
The experiment in a line: SPR Biacore T200, antibody over immobilised CD3e homodimer.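 Further: CD3 epsilon homodimer amine-coupled on a CM4 chip, run at 25 °C in HBS-EP+, Z = bound amount of each single-residue H chain variant over that of the parent antibody.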 In general terms: Surface plasmon resonance follows binding to a sensor surface in real time, without labels.

Data on 32 molecules can be found in patent publication US20240270846A1 (published 2024).

Residue numbers refer to the chain shown, from its start. Names may count otherwise.

T1 sequence (P07766 23-126): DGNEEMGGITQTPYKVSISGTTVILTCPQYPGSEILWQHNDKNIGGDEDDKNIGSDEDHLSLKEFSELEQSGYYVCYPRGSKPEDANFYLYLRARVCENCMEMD

B1: CE115HA000 Q50I one-arm antibody (antibody, human IgG1, kappa, L234A L235A, N297A, name in Kabat numbering)
heavy: QVQLVESGGGVVQPGRSLRLSCAASGFTFSNAWMHWVRQAPGKGLEWVAIIKAKSNNYATYYAESVKGRFTISRDDSKNSLYLQMNSLKTEDTAVYYCRYVHYGAYYGVDAWGQGTTVTVSSASTKGPSVFPLAPSSKSTSGGTAALGCLVKDYFPEPVTVSWNSGALTSGVHTFPAVLQSSGLYSLSSVVTVPSSSLGTQTYICNVNHKPSNTKVDKKVEPKSCDKTHTCPPCPAPEAAGGPSVFLFPPKPKDTLMISRTPEVTCVVVDVSHEDPEVKFNWYVDGVEVHNAKTKPREEQYASTYRVVSVLTVLHQDWLNGKEYKCKVSNKALPAPIEKTISKAKGQPREPQVYTLPPSRCELTKNQVSLSCAVKGFYPSDIAVEWESNGQPENNYKTTPPVLDSDGSFFLVSKLTVDKSRWQQGNVFSCSVMHEALHNHYTQKSLSLSPDYKDDDDK
chain: EPKSSDKTHTCPPCPAPELLGGPSVFLFPPKPKDTLMISRTPEVTCVVVDVSHEDPEVKFNWYVDGVEVHNAKTKPREEQYNSTYRVVSVLTVLHQDWLNGKEYKCKVSNKALPAPIEKTISKAKGQPREPQVCTLPPSRDELTKNQVSLWCLVKGFYPSDIAVEWESNGQPENNYKTTPPVLDSDGSFFLYSKLTVDKSRWQQGNVFSCSVMHEALHNRYTQKSLSLSP
light: DIVMTQSPLSLPVTPGEPASISCRSSQSLVHSNRNTYLHWYQQKPGQAPRLLIYKVSNRFSGVPDRFSGSGSGTDFTLKISRVEAEDVGVYYCGQGTQVPYTFGQGTKLEIKRTVAAPSVFIFPPSDEQLKSGTASVVCLLNNFYPREAKVQWKVDNALQSGNSQESVTEQDSKDSTYSLSSTLTLSKADYEKHKVYACEVTHQGLSSPVTKSFNRGEC
notes: one-arm antibody
For B1, the “ratio of amounts bound (Z=Y/X vs CE115HA000)” value (“ratio of amounts bound” for short) came out at 0.4.

B2: CE115HA000 S52cK one-arm antibody (antibody, human IgG1, kappa, L234A L235A, N297A, name in Kabat numbering)
heavy: B1 heavy with I50Q, S55K
chain: B1 chain
light: B1 light
notes: one-arm antibody
With B2, the “ratio of amounts bound” value was 1.19.

B3: CE115HA000 S62E one-arm antibody (antibody, human IgG1, kappa, L234A L235A, N297A, name in Kabat numbering)
heavy: B1 heavy with I50Q, S65E
chain: B1 chain
light: B1 light
notes: one-arm antibody
With B3, the “ratio of amounts bound” value was 0.92.

B4: CE115HA000 S52cL one-arm antibody (antibody, human IgG1, kappa, L234A L235A, N297A, name in Kabat numbering)
heavy: B1 heavy with I50Q, S55L
chain: B1 chain
light: B1 light
notes: one-arm antibody
As for B4, the “ratio of amounts bound” value was found to be 0.98.

B5: CE115HA000 S30D one-arm antibody (antibody, human IgG1, kappa, L234A L235A, N297A, name in Kabat numbering)
heavy: B1 heavy with S30D, I50Q
chain: B1 chain
light: B1 light
notes: one-arm antibody
In the case of B5, the “ratio of amounts bound” value turned out to be 0.86.

B6: CE115HA000 S62D one-arm antibody (antibody, human IgG1, kappa, L234A L235A, N297A, name in Kabat numbering)
heavy: B1 heavy with I50Q, S65D
chain: B1 chain
light: B1 light
notes: one-arm antibody
Regarding B6, the “ratio of amounts bound” value turned out to be 0.92.

B7: CE115HA000 S74A one-arm antibody (antibody, human IgG1, kappa, L234A L235A, N297A, name in Kabat numbering)
heavy: B1 heavy with I50Q, S77A
chain: B1 chain
light: B1 light
notes: one-arm antibody
As to B7, the “ratio of amounts bound” value was 1.05.

B8: CE115HA000 W33A one-arm antibody (antibody, human IgG1, kappa, L234A L235A, N297A, name in Kabat numbering)
heavy: B1 heavy with W33A, I50Q
chain: B1 chain
light: B1 light
notes: one-arm antibody
With B8, the “ratio of amounts bound” value worked out at 0.1.

B9: CE115HA000 S52cD one-arm antibody (antibody, human IgG1, kappa, L234A L235A, N297A, name in Kabat numbering)
heavy: B1 heavy with I50Q, S55D
chain: B1 chain
light: B1 light
notes: one-arm antibody
For B9, the “ratio of amounts bound” value turned out to be 0.6.

B10: CE115HA000 T28S one-arm antibody (antibody, human IgG1, kappa, L234A L235A, N297A, name in Kabat numbering)
heavy: B1 heavy with T28S, I50Q
chain: B1 chain
light: B1 light
notes: one-arm antibody
B10: the “ratio of amounts bound” value turned out to be 0.91.

B11: CE115HA000 W33D one-arm antibody (antibody, human IgG1, kappa, L234A L235A, N297A, name in Kabat numbering)
heavy: B1 heavy with W33D, I50Q
chain: B1 chain
light: B1 light
notes: one-arm antibody
Take B11: the “ratio of amounts bound” value worked out at 0.1.

B12: CE115HA000 S52cV one-arm antibody (antibody, human IgG1, kappa, L234A L235A, N297A, name in Kabat numbering)
heavy: B1 heavy with I50Q, S55V
chain: B1 chain
light: B1 light
notes: one-arm antibody
Turning to B12, the “ratio of amounts bound” value was determined as 0.93.

B13: CE115HA000 R16Q one-arm antibody (antibody, human IgG1, kappa, L234A L235A, N297A, name in Kabat numbering)
heavy: B1 heavy with R16Q, I50Q
chain: B1 chain
light: B1 light
notes: one-arm antibody
Turning to B13, the “ratio of amounts bound” value came out at 0.9.

B14: CE115HA000 W33F one-arm antibody (antibody, human IgG1, kappa, L234A L235A, N297A, name in Kabat numbering)
heavy: B1 heavy with W33F, I50Q
chain: B1 chain
light: B1 light
notes: one-arm antibody
Take B14: the “ratio of amounts bound” value worked out at 0.65.

B15: CE115HA000 Q50Y one-arm antibody (antibody, human IgG1, kappa, L234A L235A, N297A, name in Kabat numbering)
heavy: B1 heavy with I50Y
chain: B1 chain
light: B1 light
notes: one-arm antibody
Regarding B15, the “ratio of amounts bound” value was determined as 0.25.

B16: CE115HA000 Q50L one-arm antibody (antibody, human IgG1, kappa, L234A L235A, N297A, name in Kabat numbering)
heavy: B1 heavy with I50L
chain: B1 chain
light: B1 light
notes: one-arm antibody
As for B16, the “ratio of amounts bound” value was 0.23.

B17: CE115HA000 S62K one-arm antibody (antibody, human IgG1, kappa, L234A L235A, N297A, name in Kabat numbering)
heavy: B1 heavy with I50Q, S65K
chain: B1 chain
light: B1 light
notes: one-arm antibody
For B17, the “ratio of amounts bound” value stood at 1.19.

B18: CE115HA000 T57I one-arm antibody (antibody, human IgG1, kappa, L234A L235A, N297A, name in Kabat numbering)
heavy: B1 heavy with I50Q, T60I
chain: B1 chain
light: B1 light
notes: one-arm antibody
As for B18, the “ratio of amounts bound” value stood at 0.61.

B19: CE115HA000 T28D one-arm antibody (antibody, human IgG1, kappa, L234A L235A, N297A, name in Kabat numbering)
heavy: B1 heavy with T28D, I50Q
chain: B1 chain
light: B1 light
notes: one-arm antibody
Take B19: the “ratio of amounts bound” value worked out at 0.56.

B20: CE115HA000 S52cA one-arm antibody (antibody, human IgG1, kappa, L234A L235A, N297A, name in Kabat numbering)
heavy: B1 heavy with I50Q, S55A
chain: B1 chain
light: B1 light
notes: one-arm antibody
With B20, the “ratio of amounts bound” value was found to be 0.96.

B21: CE115HA000 S52cQ one-arm antibody (antibody, human IgG1, kappa, L234A L235A, N297A, name in Kabat numbering)
heavy: B1 heavy with I50Q, S55Q
chain: B1 chain
light: B1 light
notes: one-arm antibody
As to B21, the “ratio of amounts bound” value amounted to 1.04.

B22: CE115HA000 R19T one-arm antibody (antibody, human IgG1, kappa, L234A L235A, N297A, name in Kabat numbering)
heavy: B1 heavy with R19T, I50Q
chain: B1 chain
light: B1 light
notes: one-arm antibody
For B22, the “ratio of amounts bound” value came out at 0.8.

B23: CE115HA000 T57A one-arm antibody (antibody, human IgG1, kappa, L234A L235A, N297A, name in Kabat numbering)
heavy: B1 heavy with I50Q, T60A
chain: B1 chain
light: B1 light
notes: one-arm antibody
Consider B23, for which the “ratio of amounts bound” value came out at 0.98.

B24: CE115HA000 S52cF one-arm antibody (antibody, human IgG1, kappa, L234A L235A, N297A, name in Kabat numbering)
heavy: B1 heavy with I50Q, S55F
chain: B1 chain
light: B1 light
notes: one-arm antibody
Regarding B24, the “ratio of amounts bound” value turned out to be 1.13.

B25: CE115HA000 V11L one-arm antibody (antibody, human IgG1, kappa, L234A L235A, N297A, name in Kabat numbering)
heavy: B1 heavy with V11L, I50Q
chain: B1 chain
light: B1 light
notes: one-arm antibody
Regarding B25, the “ratio of amounts bound” value was found to be 1.

B26: CE115HA000 R16E one-arm antibody (antibody, human IgG1, kappa, L234A L235A, N297A, name in Kabat numbering)
heavy: B1 heavy with R16E, I50Q
chain: B1 chain
light: B1 light
notes: one-arm antibody
As to B26, the “ratio of amounts bound” value is 0.88.

B27: CE115HA000 S52cY one-arm antibody (antibody, human IgG1, kappa, L234A L235A, N297A, name in Kabat numbering)
heavy: B1 heavy with I50Q, S55Y
chain: B1 chain
light: B1 light
notes: one-arm antibody
For B27, the “ratio of amounts bound” value was 1.11.

B28: CE115HA000 Q50K one-arm antibody (antibody, human IgG1, kappa, L234A L235A, N297A, name in Kabat numbering)
heavy: B1 heavy with I50K
chain: B1 chain
light: B1 light
notes: one-arm antibody
Turning to B28, the “ratio of amounts bound” value is 0.33.

B29: CE115HA000 S52cG one-arm antibody (antibody, human IgG1, kappa, L234A L235A, N297A, name in Kabat numbering)
heavy: B1 heavy with I50Q, S55G
chain: B1 chain
light: B1 light
notes: one-arm antibody
On to B29, for which the “ratio of amounts bound” value turned out to be 0.97.

B30: CE115HA000 S30G one-arm antibody (antibody, human IgG1, kappa, L234A L235A, N297A, name in Kabat numbering)
heavy: B1 heavy with S30G, I50Q
chain: B1 chain
light: B1 light
notes: one-arm antibody
As for B30, the “ratio of amounts bound” value came to 1.01.

B31: CE115HA000 Q50S one-arm antibody (antibody, human IgG1, kappa, L234A L235A, N297A, name in Kabat numbering)
heavy: B1 heavy with I50S
chain: B1 chain
light: B1 light
notes: one-arm antibody
For B31, the “ratio of amounts bound” value turned out to be 0.24.

B32: CE115HA000 T57K one-arm antibody (antibody, human IgG1, kappa, L234A L235A, N297A, name in Kabat numbering)
heavy: B1 heavy with I50Q, T60K
chain: B1 chain
light: B1 light
notes: one-arm antibody
Regarding B32, the “ratio of amounts bound” value was 1.32.
